This note sets out measurements from PMC10635571.

In this assay the target is hnRNPK (human (endogenous in HeLa)) (UniProt P61978). Put plainly: native gel or EMSA; blue native PAGE (4-13%) of the lhCLIP sample: HeLa cells UV-crosslinked, lysate immunoprecipitated with anti-hnRNPK, MNase digestion, pCp-biotin labelling, ligation, eluted from beads at 70°C for 10 min without reducing agents; blotted with anti-hnRNPK antibody. For orientation: Mobility shift assays separate free from complexed probe on a gel.

As usually defined, the stoichiometry N is the number of molecules, sites or subunits per partner or assembly. In turn, “hnRNPK, P61978 1-463 (natural protein; other documents disagree on this pair)” returned a stoichiometry N of 2.
